B1: sBCMA-mAb1 (antibody, V domains shown)
VH: QSLEESGGDLVKPGAFLTLTCTASGFSFSSGYYICWVRQAPGKGLEWIACIYTGSSGSTDYASWAKGRFTISKTSSTTVTLQMTSLTAADTATYFCARDYGHSYWNLWGPGTLVTVSS
VL: DIVMTQTPASVEAAVGGTVTIKCQASEDISSRLAWYQQKPGQPPKLLIGAASTLASGVSSRFKGSRSGTEYTLTISDLECADAATYYCLGDYYVSSYGNAFGGGTEVVVKG
notes: Rabbit monoclonal IgG, used as purified recombinant antibody; also called rabbit monoclonal anti-sBCMA antibody sBCMA-mAb1; sBCMA-mAbl

Assay [1] deals with T1, soluble BCMA (sBCMA) (human, UniProt Q02223 1-54).
T1 construct: also called BCMA ECD; Biotinylated BCMA
T1 sequence: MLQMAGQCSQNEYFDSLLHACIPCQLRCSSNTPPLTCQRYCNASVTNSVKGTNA
Briefly: SPR (Biacore 3000, 25 C); mAb captured on goat anti-rabbit IgG Fc, sBCMA as analyte; 1:1 Langmuir with mass transfer. On the procedure:
Experiments were performed using a Biacore 3000 (GE Healthcare) at 25° C. The running buffer was HBS-P (10 mM HEPES, pH7.4, 150 mM NaCl, 0.05% Surfactant P-20)+0.1% BSA, and kinetics were performed at a high flowrate (100 μl/min). 10 mM Glycine, pH 1.7 was used for regeneration.
Surface preparation: A goat anti-rabbit IgG Fc (Prod. #111-005-046 from Jackson Research) was diluted 1/20 in NaAcetate, pH 5 and covalently coupled to the sample and reference Fc (Fc 1) of a CMS sensor chip using amine coupling. Individual mAbs were diluted in HBS-P+0.1% BSA and captured on either Fc 2, 3, or 4 at 0.3 μg/ml for kinetic analysis of binding to sBCMA.
Interaction Parameters: sBCMA (1.19 mg/ml stock) was injected as analyte at 600 nM, 300 nM, 150 nM, 75 nM, 37.5 nM, 18.8 nM, and 9.4 nM with the 75 nM concentrated run twice to gage reproducibility. The association rate was monitored for 2.5 minutes. The dissociation time was 20 minutes to determine more accurate kinetics for those mAbs with slower off-rates. The data was double background referenced in that both a reference Fc and a 0 nM analyte concentration were subtracted from the data. A 1:1 Langmuir binding model with mass transfer was used from the Biacore evaluation software.
In general terms: Surface plasmon resonance follows binding to a sensor surface in real time, without labels.

The target in assay [2] is B1. Briefly: Octet: sBCMA-mAb3 on captured sBCMA-mAb1 without BCMA (sensor blocked with irrelevant IgG).

Broadly, the Kd is the equilibrium constant for the complex coming apart. A higher Kd goes with lower affinity. In general, koff refers to a measure of how fast the partners let go of each other. Read a high koff as fast dissociation. What is called kon is the second-order rate constant of association. Take B1: in assay [1], the Kd was 0.103 nM, the koff came out at 6.47e-05 s⁻¹ and the association rate constant (kon) was 630000 M⁻¹ s⁻¹.

B2: sBCMA-mAb2 (antibody, V domains shown)
VH: QSLEESGGDLVKPGASLTLTCTASGFSFSSSYWICWVRQAPGKGLEWIACIYAGSGDFTYYASWAKGRFTVSKTSSTTVTLQMTSLTAADTATYFCARDAATSYYSHYFTLWGPGTLVTVSS
VL: DVVMTQTPASVSEPVGGTVTIKCQASQSIYSGLAWYQQKPGQPPKLLIYDASDLASGVPSRFSGSGYGTEFTLTISGVQCEDAATYYCQVTHYESGVPLGGGTEVVVEG
notes: Rabbit monoclonal IgG; also called rabbit monoclonal anti-sBCMA antibody sBCMA-mAb2
On to B2, for which, in assay [1], binding was put at a Kd of 377 nM, the koff amounted to 0.0185 s⁻¹ and the kon came to 49200 M⁻¹ s⁻¹.

B3: sBCMA-mAb3 (antibody, V domains shown)
VH: QEQLEESGGGLVKPGGTLTLTCKASGMDFSSYYYMCWVRQAPGKGLEWIACIFSDSGGHTAYASWAEGRFTISKTSSTTVTLQMTSLTVADTATYFCARDRRDVVYIRDLWGPGTLVTVSS
VL: ALVMTQTPSPVSAAVGGTVTISCQSSESVYNNNALAWYQQKPGQPPKLLIYGASSLASGVPSRFKGSGSGTQFTLTISDLECDDAATYYCAGYKRYNNDGHAFGGGTEVVVKG
notes: Rabbit monoclonal IgG; also called rabbit monoclonal anti-sBCMA-mAb3
Turning to B3, in assay [1], the Kd is 4.5 nM, the off-rate constant (koff) worked out at 0.00405 s⁻¹ and the on-rate (kon) is 901000 M⁻¹ s⁻¹. For the same molecule, in assay [2], the binding result is given as “no binding (tested: not given)”.

(Values after patent US20200102398A1 (Amgen, published 2020).)
